Reference: the supplement of paper PMC9170038

System: MS2 coat protein
Test: apparent KD of MS2 coat protein; designed switch direction (-1 OFF switch, 1 ON switch): 1; higher = weaker reporter binding
In short: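 An oligonucleotide input, 200 uM small-molecule ligand, or no input was present during titration of SNAP-549-labelled MS2 coat protein, which was doubled from 0.7 or 1.5 nM to 3 µM. Designed RNA switches had been transcribed on Illumina chips by stalled E. coli RNA polymerase. Apparent KD per design is the median over clusters of curves fitted to normalised cluster fluorescence.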

[1] = input ligand: microRNA oligo, concentration not stated

| Sequence | apparent KD of MS2 coat protein (input ligand: FMN 200 uM) [nM] | apparent KD of MS2 coat protein [1] [nM] | apparent KD of MS2 coat protein (input ligand: none) [nM] | apparent KD of MS2 coat protein (Eterna round: R95, input ligand: microRNA oligo, concentration not stated) [nM] |
| --- | --- | --- | --- | --- |
| GCUAGAAUAAAUGCUAACAUGAGGAUCACCCAUGUAUGUUGGCAGGAUAUCGUAUGCAAAGCAUACGAGAAGGGCCAUACUAGC [Mat - Same State NG 3 - JL Mod - D27] (Eterna round: R96, puzzle: Same State NG 3) | 17.3 | 20.4 | 29.5 | – |
| UGUUAUUUGACAGGAUAUUGAUUGUUAAGUUUUUACAUGAGGAUCACCCAUGUUGUUCAUUCGUACAAGAAGGGUCAAGUUUUU [JR_SSNG2_Sub020] (Eterna round: R96, puzzle: Same State NG 2) | – | 52.6 | – | – |
| UUGAAGAAUUAAGGAUAUCGAGUCGUCUAAUUAAACAUGAGGAUCACCCAUGUGGGUUGUGGUAUCGAGAAGGUAAAUUACUAA [JR_SSNG2_Sub099] (Eterna round: R96, puzzle: Same State NG 2) | 74.4 | 65.3 | 95.1 | – |
| GCACUCCUAGGAGCUGCGACAUGAGGAUCACCCAUGUAAUCACAGGAUAUGCGAGUCCGAAUUUUGCAGAAGGGUGAUAAGAAC [Biesanarre] (Eterna round: R96, puzzle: Same State NG 3) | 404 | 52.3 | 45.7 | – |
| GCUCGGAUGAUGGCCCACAUGAGGAUCACCCAUGUGAGUGGGCAGGAUAUCUAGAUUAAGGAUGUAGAGAAGGGCCUACCGAGC [SameState NG3 #34] (Eterna round: R96, puzzle: Same State NG 3) | 2070 | 100 | 759 | – |
| GCUCGUGGUAUUGUCUACAUGAGGAUCACCCAUGUAGGUGCGGAGGAUAUUUACGUGUCUCAUGUAGAGAAGGCCGUCACGAGC [SameState NG3 #97] (Eterna round: R96, puzzle: Same State NG 3) | 52.2 | 190 | 297 | – |
| AAUUGUUUCUGAGGAUAUCAGUAGUAUGCCAAUUGAGAAGGCAGUACAUGAGGAUCACCCAUGUUGUGGUUUGAUAGAAUGAUA [JR_SSNG1_Sub002] (Eterna round: R96, puzzle: Same State NG 1) | 170 | 143 | 181 | – |
| UUAAUGAUGUAAGGAUAUACAUGAGGAUUUCUCGUAGAAGGUACAAGACAUGAGGAUCACCCAUGUGUCGCUCAAUAGAGCGUA [Mat - Same State NG 1 - JL mod - D19] (Eterna round: R96, puzzle: Same State NG 1) | 268 | 138 | 292 | – |
| GCGAAAUGAUGAAACAUGAGGAUCACCCAUGUAACGAGAGAUGAGGAUAUCGGAAAGGGAGGAACCGAGAAGGCAUGGUCACGC [AK SSNG3-V2-26.1] (Eterna round: R96, puzzle: Same State NG 3) | 34.5 | 37.1 | 48.2 | – |
| GUUACAUGAGGAUCACCCAUGUAUGUGUGGGAGUAAGUGUCUUAGGAUAUCUAUGAUUUAAUUCAAGAGAAGGAAGAUUGUUGU [JMF's solution 85] (Eterna round: R96, puzzle: Same State NG 3) | 115 | 70.7 | 79.5 | – |
| GCCAACUCAUGAGGAUAUGGCACCUUAAUGGUGCCAGAAGGCAUGUCUAUUGACAUGAGGAUCACCCAUGUAUUAUUGUUGGCA [Fiskers NG1ss - 25] (Eterna round: R96, puzzle: Same State NG 1) | 100 | 241 | 821 | – |
| AGUUGUAAUACAGGAUAUAUAUUAUUUUUAUUUAUAGAAGGGUAAUCACAUGAGGAUCACCCAUGUAUAUACGAGGAAGAAGAG [JMF's solution 2] (Eterna round: R96, puzzle: Same State NG 1) | – | 194 | – | – |
| UGGCUCAGACGAGGAUAUGAUCAUGGCGCUUCGGCGCAUACAUGAGGAUCACCCAUGUAAAGUGAUCAGAAGGCGUCUGAGCCU [SSNG2/7-A3] (Eterna round: R96, puzzle: Same State NG 2) | 14.8 | 11.1 | 15 | – |
| GUACAACAUGAGGAUCACCCAUGUAUAUAUAUACGAGGAUAUGCAUGUACGAAAGUAUAUGCAGAAGGCGUUGUAC [Pin2Pin] (puzzle: Same State 1) | – | – | – | 75.4 |
| AGCCGAGACGCAGGAUAUAGAUAUCUACAUGAGGAUCACCCAUGUAGCAACACGUGGUAGUGAUUCUAGAAGGGUGCUCGGCGC [Omei SS(NG)2 Cv7] (Eterna round: R96, puzzle: Same State NG 2) | 44.9 | 322 | 504 | – |
| CACAUGAGGAUCACCCAUGUGAGGCGGCAAUAAAACCGCGCACAGGAUAUAGCGCUAAGAAAGCGCUAGAAGGGUGAUUAGAAC [Gerelabies] (Eterna round: R96, puzzle: Same State NG 3) | 712 | 20.8 | 71.1 | – |
